Laboratory results from patent US20040191860A1.

Experiments:
[1] = target: r150, 150 kDa GPI-anchored TGF-β1 binding protein (membrane anchored form) (human) (UniProt Q6YHK3); test: competition of unlabeled TGF-β3 with 125I-TGF-β1 on keratinocytes, affinity cross-link labeling, densitometry
[2] = target: Transforming growth factor-β1 (UniProt P01137); test: 125I-TGF-β1 (50 pM) binding to MvLu1 cells with concentrated supernatant of untreated HaCaT cells (r150 released by an endogenous phospholipase), dose 2
[3] = target: Transforming growth factor-β1 (UniProt P01137); test: 125I-TGF-β1 (50 pM) binding to MvLu1 cells with concentrated supernatant of PIPLC treated HaCaT cells, dose 1 (one T-25 flask, about 1x10^6 cells)
[4] = target: Transforming growth factor-β1 (UniProt P01137); test: 125I-TGF-β1 (50 pM) binding to MvLu1 cells with concentrated supernatant of PIPLC treated HaCaT cells, dose 2
[5] = target: Transforming growth factor-β1 (UniProt P01137); test: 125I-TGF-β1 (50 pM) binding to MvLu1 cells with concentrated supernatant of untreated HaCaT cells (r150 released by an endogenous phospholipase), dose 1

Transforming growth factor-β1, sequence (P01137 279-390 limits assumed): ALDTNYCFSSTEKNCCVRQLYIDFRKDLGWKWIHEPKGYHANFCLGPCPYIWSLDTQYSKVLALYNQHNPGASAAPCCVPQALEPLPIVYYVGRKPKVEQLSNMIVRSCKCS
r150, 150 kDa GPI-anchored TGF-β1 binding protein (membrane anchored form) (human), sequence (Q6YHK3 other isoform, or with tags, fused parts or gaps limits assumed): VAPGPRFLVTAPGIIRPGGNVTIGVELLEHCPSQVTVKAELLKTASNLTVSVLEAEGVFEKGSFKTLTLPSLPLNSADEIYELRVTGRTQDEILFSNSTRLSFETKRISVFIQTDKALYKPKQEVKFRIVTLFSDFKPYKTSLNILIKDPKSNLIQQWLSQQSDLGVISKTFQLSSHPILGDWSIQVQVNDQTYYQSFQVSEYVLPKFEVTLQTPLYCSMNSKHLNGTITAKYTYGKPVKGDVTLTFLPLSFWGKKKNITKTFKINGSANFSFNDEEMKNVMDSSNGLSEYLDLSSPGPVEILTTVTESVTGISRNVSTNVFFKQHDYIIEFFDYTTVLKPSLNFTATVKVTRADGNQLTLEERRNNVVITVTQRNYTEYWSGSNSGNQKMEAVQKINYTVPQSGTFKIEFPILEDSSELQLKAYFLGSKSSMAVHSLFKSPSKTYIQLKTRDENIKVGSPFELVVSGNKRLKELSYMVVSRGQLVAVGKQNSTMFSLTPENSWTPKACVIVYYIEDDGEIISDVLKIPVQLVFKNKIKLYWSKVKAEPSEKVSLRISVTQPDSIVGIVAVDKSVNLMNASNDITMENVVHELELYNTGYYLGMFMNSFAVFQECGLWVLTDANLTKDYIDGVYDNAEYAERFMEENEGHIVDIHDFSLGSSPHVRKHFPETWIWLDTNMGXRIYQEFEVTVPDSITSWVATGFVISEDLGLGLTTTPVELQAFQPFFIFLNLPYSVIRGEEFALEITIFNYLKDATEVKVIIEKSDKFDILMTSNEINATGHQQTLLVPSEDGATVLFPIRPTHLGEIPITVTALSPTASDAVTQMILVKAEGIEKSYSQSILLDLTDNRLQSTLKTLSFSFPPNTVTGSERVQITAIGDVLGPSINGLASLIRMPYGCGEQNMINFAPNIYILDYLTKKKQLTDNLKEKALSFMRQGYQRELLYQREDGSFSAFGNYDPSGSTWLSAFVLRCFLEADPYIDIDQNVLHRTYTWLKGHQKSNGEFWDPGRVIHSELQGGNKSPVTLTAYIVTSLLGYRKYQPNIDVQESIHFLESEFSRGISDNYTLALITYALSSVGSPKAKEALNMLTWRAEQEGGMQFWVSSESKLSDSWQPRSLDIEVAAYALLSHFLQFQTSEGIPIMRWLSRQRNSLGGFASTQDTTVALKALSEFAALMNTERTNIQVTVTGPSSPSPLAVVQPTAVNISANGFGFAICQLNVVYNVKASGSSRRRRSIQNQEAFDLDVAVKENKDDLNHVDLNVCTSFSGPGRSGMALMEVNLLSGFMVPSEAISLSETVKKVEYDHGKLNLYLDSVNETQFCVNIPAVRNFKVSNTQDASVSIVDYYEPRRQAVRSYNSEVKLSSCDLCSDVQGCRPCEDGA

ratio of the concentration for half-maximal inhibition of 125I-TGF-β1 binding, r150 against the types I or II receptors [1] | percent inhibition of 125I-TGF-β1 binding to MvLu1 cells [2] | percent inhibition of 125I-TGF-β1 binding to MvLu1 cells [3] | percent inhibition of 125I-TGF-β1 binding to MvLu1 cells [4] | percent inhibition of 125I-TGF-β1 binding to MvLu1 cells [5] | Substance
6 fold |  |  |  |  | Transforming growth factor-β3 (from UniProt P10600 301-412) (ligand)
 | 31% | 33% | 50% | 15% | soluble r150 (released from the cell surface by PIPLC or by an endogenous phospholipase C) (from UniProt Q6YHK3 22-1420) (receptor)
